Data as given in EP4613288A1.

Legend:
[1] = target: human activated protein C (human) (UniProt P04070); experiment: cell-based or functional assay
[2] = target: human activated protein C (human) (UniProt P04070)

Binder	Mean Value of the Clotting Time (s), Protac-induced APTT, FIX-deficient plasma, antibody 0.5 µg/ml [1] [s]	Mean Value of the Clotting Time (s), Protac-induced APTT, FIX-deficient plasma, antibody 1 µg/ml [1] [s]	Mean Value of the Clotting Time (s), Protac-induced APTT, FIX-deficient plasma, antibody 5 µg/ml [1] [s]	Mean Value of the Clotting Time (s), Protac-induced APTT, FVIII-deficient plasma, antibody 0.5 µg/ml [1] [s]	Mean Value of the Clotting Time (s), Protac-induced APTT, FVIII-deficient plasma, antibody 1 µg/ml [1] [s]	Mean Value of the Clotting Time (s), Protac-induced APTT, FVIII-deficient plasma, antibody 5 µg/ml [1] [s]	minimal dose inhibiting aPC anticoagulant activity, Protac-induced APTT, human plasma deficient in various coagulation factors [1] [µg/mL]	fold increase in affinity compared to the humanized antibody without mutations in the CDR regions [2] [fold]
murine antibody HAPC1573 (antibody, from another filing, V domains shown) VH: EVKLEESGGGLVQPGGSMKLSCVASGFTFSNYYLNWVRQSPEKGLEWVADIRLKSNNYEKHYAESVKGRFTISRDDSKSSVYLQMNNLRAEDTGIYYCIREGDYFDYWGQGTTLTVSS VL: NIVLTQSPASLAVSLGQRATISCRASESVDSFGATFMHWYQQKPGQPPKLLIYLASNLESGVPARFSGSGSRTDFTLTIDPVEADDAATYYCQQNNEDPYTFGGGTKLEIKR	584	567	404	600	629	389	> 100	
anti-aPC monoclonal antibody HAPC-14-6 (antibody, V domains shown) VH: EVQLVESGGGLVQPGGSLRLSCAASGFTFSFYYLNWVRQAPGKGLEWVGDIRLKKNNYEKHYAESVKGRFTISRDDSKSITYLQMNSLRAEDTAVYYCAREGDYFDYWGQGTTVTVSS VL: DIQLTQSPSSLSASVGDRVTITCRASESVDSFGATFMHWYQQKPGKAPKLLIYLASRLGSGVPSRFSGSGSGTDFTLTISSLQPEDFATYYCQQNNEDPYTFGQGTKLEIK	181	198	180	182	187	162	< 1	100
